Biological target: T1, FcγRIIIa extracellular domain with C-terminal His tag (human, UniProt P08637 17-208)
T1 construct: extracellular domain; also called FcgRIIIa; 3a
Test: SPR, relative to GpH7-B3/GpL16-k0

T1 sequence (P08637 17-208): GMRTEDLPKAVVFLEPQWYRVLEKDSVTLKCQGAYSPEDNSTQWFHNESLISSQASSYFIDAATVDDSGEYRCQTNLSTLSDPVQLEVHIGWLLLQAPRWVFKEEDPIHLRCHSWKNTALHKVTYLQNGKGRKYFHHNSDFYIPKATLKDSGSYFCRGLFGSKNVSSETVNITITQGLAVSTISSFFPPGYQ

| Binder | Ho/Con_3a |
| --- | --- |
| GpH7-B3 variant K334_02A/GpL16-k0 (antibody, human IgG1, kappa, homodimerized IgG1, mutation in both H chains; also called Ho Ab) heavy: not shown light: DIVMTQSPLSLPVTPGEPASISCQASESLVHSNRNTYLHWYLQKPGQSPQLLIYKVSNRFSGVPDRFSGSGSGTDFTLKISRVEAEDVGVYYCSQNTHVPPTFGQGTKVEIERTVAAPSVFIFPPSDEQLKSGTASVVCLLNNFYPREAKVQWKVDNALQSGNSQESVTEQDSKDSTYSLSSTLTLSKADYEKHKVYACEVTHQGLSSPVTKSFNRGEC | 154 % of control (=100) |
| GpH7-B3 variant K334_18N/GpL16-k0 (antibody, human IgG1, kappa, homodimerized IgG1, mutation in both H chains; also called Ho Ab) heavy: not shown light: DIVMTQSPLSLPVTPGEPASISCQASESLVHSNRNTYLHWYLQKPGQSPQLLIYKVSNRFSGVPDRFSGSGSGTDFTLKISRVEAEDVGVYYCSQNTHVPPTFGQGTKVEIERTVAAPSVFIFPPSDEQLKSGTASVVCLLNNFYPREAKVQWKVDNALQSGNSQESVTEQDSKDSTYSLSSTLTLSKADYEKHKVYACEVTHQGLSSPVTKSFNRGEC | 156 % of control (=100) |
| GpH7-B3 variant K334_07I/GpL16-k0 (antibody, human IgG1, kappa, homodimerized IgG1, mutation in both H chains; also called Ho Ab) heavy: not shown light: DIVMTQSPLSLPVTPGEPASISCQASESLVHSNRNTYLHWYLQKPGQSPQLLIYKVSNRFSGVPDRFSGSGSGTDFTLKISRVEAEDVGVYYCSQNTHVPPTFGQGTKVEIERTVAAPSVFIFPPSDEQLKSGTASVVCLLNNFYPREAKVQWKVDNALQSGNSQESVTEQDSKDSTYSLSSTLTLSKADYEKHKVYACEVTHQGLSSPVTKSFNRGEC | 180 % of control (=100) |
| GpH7-B3 variant K334_19Q/GpL16-k0 (antibody, human IgG1, kappa, homodimerized IgG1, mutation in both H chains; also called Ho Ab) heavy: not shown light: DIVMTQSPLSLPVTPGEPASISCQASESLVHSNRNTYLHWYLQKPGQSPQLLIYKVSNRFSGVPDRFSGSGSGTDFTLKISRVEAEDVGVYYCSQNTHVPPTFGQGTKVEIERTVAAPSVFIFPPSDEQLKSGTASVVCLLNNFYPREAKVQWKVDNALQSGNSQESVTEQDSKDSTYSLSSTLTLSKADYEKHKVYACEVTHQGLSSPVTKSFNRGEC | 150 % of control (=100) |
| GpH7-B3 variant K334_05P/GpL16-k0 (antibody, human IgG1, kappa, homodimerized IgG1, mutation in both H chains; also called Ho Ab) heavy: not shown light: DIVMTQSPLSLPVTPGEPASISCQASESLVHSNRNTYLHWYLQKPGQSPQLLIYKVSNRFSGVPDRFSGSGSGTDFTLKISRVEAEDVGVYYCSQNTHVPPTFGQGTKVEIERTVAAPSVFIFPPSDEQLKSGTASVVCLLNNFYPREAKVQWKVDNALQSGNSQESVTEQDSKDSTYSLSSTLTLSKADYEKHKVYACEVTHQGLSSPVTKSFNRGEC | 165 % of control (=100) |
| GpH7-B3 variant K334_16H/GpL16-k0 (antibody, human IgG1, kappa, homodimerized IgG1, mutation in both H chains; also called Ho Ab) heavy: not shown light: DIVMTQSPLSLPVTPGEPASISCQASESLVHSNRNTYLHWYLQKPGQSPQLLIYKVSNRFSGVPDRFSGSGSGTDFTLKISRVEAEDVGVYYCSQNTHVPPTFGQGTKVEIERTVAAPSVFIFPPSDEQLKSGTASVVCLLNNFYPREAKVQWKVDNALQSGNSQESVTEQDSKDSTYSLSSTLTLSKADYEKHKVYACEVTHQGLSSPVTKSFNRGEC | 153 % of control (=100) |
| GpH7-B3 variant K334_03V/GpL16-k0 (antibody, human IgG1, kappa, homodimerized IgG1, mutation in both H chains; also called Ho Ab) heavy: not shown light: DIVMTQSPLSLPVTPGEPASISCQASESLVHSNRNTYLHWYLQKPGQSPQLLIYKVSNRFSGVPDRFSGSGSGTDFTLKISRVEAEDVGVYYCSQNTHVPPTFGQGTKVEIERTVAAPSVFIFPPSDEQLKSGTASVVCLLNNFYPREAKVQWKVDNALQSGNSQESVTEQDSKDSTYSLSSTLTLSKADYEKHKVYACEVTHQGLSSPVTKSFNRGEC | 170 % of control (=100) |
| GpH7-B3 variant K334_15Y/GpL16-k0 (antibody, human IgG1, kappa, homodimerized IgG1, mutation in both H chains; also called Ho Ab) heavy: not shown light: DIVMTQSPLSLPVTPGEPASISCQASESLVHSNRNTYLHWYLQKPGQSPQLLIYKVSNRFSGVPDRFSGSGSGTDFTLKISRVEAEDVGVYYCSQNTHVPPTFGQGTKVEIERTVAAPSVFIFPPSDEQLKSGTASVVCLLNNFYPREAKVQWKVDNALQSGNSQESVTEQDSKDSTYSLSSTLTLSKADYEKHKVYACEVTHQGLSSPVTKSFNRGEC | 181 % of control (=100) |
| GpH7-B3 variant K334_10E/GpL16-k0 (antibody, human IgG1, kappa, homodimerized IgG1, mutation in both H chains; also called Ho Ab) heavy: not shown light: DIVMTQSPLSLPVTPGEPASISCQASESLVHSNRNTYLHWYLQKPGQSPQLLIYKVSNRFSGVPDRFSGSGSGTDFTLKISRVEAEDVGVYYCSQNTHVPPTFGQGTKVEIERTVAAPSVFIFPPSDEQLKSGTASVVCLLNNFYPREAKVQWKVDNALQSGNSQESVTEQDSKDSTYSLSSTLTLSKADYEKHKVYACEVTHQGLSSPVTKSFNRGEC | 206 % of control (=100) |
| GpH7-B3 variant K334_14T/GpL16-k0 (antibody, human IgG1, kappa, homodimerized IgG1, mutation in both H chains; also called Ho Ab) heavy: not shown light: DIVMTQSPLSLPVTPGEPASISCQASESLVHSNRNTYLHWYLQKPGQSPQLLIYKVSNRFSGVPDRFSGSGSGTDFTLKISRVEAEDVGVYYCSQNTHVPPTFGQGTKVEIERTVAAPSVFIFPPSDEQLKSGTASVVCLLNNFYPREAKVQWKVDNALQSGNSQESVTEQDSKDSTYSLSSTLTLSKADYEKHKVYACEVTHQGLSSPVTKSFNRGEC | 163 % of control (=100) |
| GpH7-B3 variant K334_13S/GpL16-k0 (antibody, human IgG1, kappa, homodimerized IgG1, mutation in both H chains; also called Ho Ab) heavy: not shown light: DIVMTQSPLSLPVTPGEPASISCQASESLVHSNRNTYLHWYLQKPGQSPQLLIYKVSNRFSGVPDRFSGSGSGTDFTLKISRVEAEDVGVYYCSQNTHVPPTFGQGTKVEIERTVAAPSVFIFPPSDEQLKSGTASVVCLLNNFYPREAKVQWKVDNALQSGNSQESVTEQDSKDSTYSLSSTLTLSKADYEKHKVYACEVTHQGLSSPVTKSFNRGEC | 153 % of control (=100) |
| GpH7-B3 variant K334_04F/GpL16-k0 (antibody, human IgG1, kappa, homodimerized IgG1, mutation in both H chains; also called Ho Ab) heavy: not shown light: DIVMTQSPLSLPVTPGEPASISCQASESLVHSNRNTYLHWYLQKPGQSPQLLIYKVSNRFSGVPDRFSGSGSGTDFTLKISRVEAEDVGVYYCSQNTHVPPTFGQGTKVEIERTVAAPSVFIFPPSDEQLKSGTASVVCLLNNFYPREAKVQWKVDNALQSGNSQESVTEQDSKDSTYSLSSTLTLSKADYEKHKVYACEVTHQGLSSPVTKSFNRGEC | 168 % of control (=100) |
| GpH7-B3 variant K334_09D/GpL16-k0 (antibody, human IgG1, kappa, homodimerized IgG1, mutation in both H chains; also called Ho Ab) heavy: not shown light: DIVMTQSPLSLPVTPGEPASISCQASESLVHSNRNTYLHWYLQKPGQSPQLLIYKVSNRFSGVPDRFSGSGSGTDFTLKISRVEAEDVGVYYCSQNTHVPPTFGQGTKVEIERTVAAPSVFIFPPSDEQLKSGTASVVCLLNNFYPREAKVQWKVDNALQSGNSQESVTEQDSKDSTYSLSSTLTLSKADYEKHKVYACEVTHQGLSSPVTKSFNRGEC | 150 % of control (=100) |
| GpH7-B3 variant Q295_02A/GpL16-k0 (antibody, human IgG1, kappa, homodimerized IgG1, mutation in both H chains; also called Ho Ab) heavy: not shown light: DIVMTQSPLSLPVTPGEPASISCQASESLVHSNRNTYLHWYLQKPGQSPQLLIYKVSNRFSGVPDRFSGSGSGTDFTLKISRVEAEDVGVYYCSQNTHVPPTFGQGTKVEIERTVAAPSVFIFPPSDEQLKSGTASVVCLLNNFYPREAKVQWKVDNALQSGNSQESVTEQDSKDSTYSLSSTLTLSKADYEKHKVYACEVTHQGLSSPVTKSFNRGEC | 108 % of control (=100) |
| GpH7-B3 variant K334_08L/GpL16-k0 (antibody, human IgG1, kappa, homodimerized IgG1, mutation in both H chains; also called Ho Ab) heavy: not shown light: DIVMTQSPLSLPVTPGEPASISCQASESLVHSNRNTYLHWYLQKPGQSPQLLIYKVSNRFSGVPDRFSGSGSGTDFTLKISRVEAEDVGVYYCSQNTHVPPTFGQGTKVEIERTVAAPSVFIFPPSDEQLKSGTASVVCLLNNFYPREAKVQWKVDNALQSGNSQESVTEQDSKDSTYSLSSTLTLSKADYEKHKVYACEVTHQGLSSPVTKSFNRGEC | 178 % of control (=100) |
| GpH7-B3 variant Q295_10E/GpL16-k0 (antibody, human IgG1, kappa, homodimerized IgG1, mutation in both H chains; also called Ho Ab) heavy: not shown light: DIVMTQSPLSLPVTPGEPASISCQASESLVHSNRNTYLHWYLQKPGQSPQLLIYKVSNRFSGVPDRFSGSGSGTDFTLKISRVEAEDVGVYYCSQNTHVPPTFGQGTKVEIERTVAAPSVFIFPPSDEQLKSGTASVVCLLNNFYPREAKVQWKVDNALQSGNSQESVTEQDSKDSTYSLSSTLTLSKADYEKHKVYACEVTHQGLSSPVTKSFNRGEC | 111 % of control (=100) |

Source: US20180155451A1 (published 2018)
